Assay [1] concerns the target T1, GST:AtMS2 (Arabidopsis METHIONINE SYNTHASE 2 fused with GST) (Arabidopsis thaliana, UniProt Q9SRV5 1-765).
T1 construct: METHIONINE SYNTHASE 2 (AtMS2), Arabidopsis thaliana, At3g03780; AtMS2 cDNA cloned into pGEX-4T-1; also called AtMS2 protein fused with GST; AtMS2 in fusion with GST; source: E. coli BL21, purified (glutathione resin)
T1 sequence (looked up): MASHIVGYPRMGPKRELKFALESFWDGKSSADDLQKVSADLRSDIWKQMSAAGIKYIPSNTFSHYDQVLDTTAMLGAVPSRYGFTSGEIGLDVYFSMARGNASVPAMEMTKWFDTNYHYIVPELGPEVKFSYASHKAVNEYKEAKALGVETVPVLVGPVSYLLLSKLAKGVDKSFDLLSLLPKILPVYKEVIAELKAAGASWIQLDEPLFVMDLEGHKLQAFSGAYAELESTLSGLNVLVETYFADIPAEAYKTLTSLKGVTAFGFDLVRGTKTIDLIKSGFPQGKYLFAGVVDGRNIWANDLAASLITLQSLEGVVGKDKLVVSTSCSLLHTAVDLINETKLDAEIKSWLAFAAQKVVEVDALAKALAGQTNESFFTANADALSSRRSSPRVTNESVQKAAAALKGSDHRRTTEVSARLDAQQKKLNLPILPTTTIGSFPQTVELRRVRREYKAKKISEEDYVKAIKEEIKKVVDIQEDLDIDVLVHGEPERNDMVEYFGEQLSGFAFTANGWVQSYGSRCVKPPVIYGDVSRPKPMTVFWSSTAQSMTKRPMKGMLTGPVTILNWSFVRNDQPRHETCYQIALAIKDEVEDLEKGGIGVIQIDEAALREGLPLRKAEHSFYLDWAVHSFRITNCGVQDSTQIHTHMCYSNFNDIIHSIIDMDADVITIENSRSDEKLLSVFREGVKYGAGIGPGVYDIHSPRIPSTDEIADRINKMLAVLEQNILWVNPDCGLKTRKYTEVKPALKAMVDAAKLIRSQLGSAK
Nature of the assay: pull-down; MBP fusions or MBP immobilised on amylose resin, incubated with GST:AtMS2; 50 mM Tris-HCl pH 7.4, 200 mM NaCl, 5.0% glycerol, 1.5% Triton X-100, 10 mM NaF, 1.0 mM Na3VO4, 1.0 mM PMSF; 1.5 h at 4 °C; immunoblot with anti-GST antibody. The conditions noted are these: both partners purified.

Assay [2] deals with T2, MBP:AtMS2 (Arabidopsis thaliana, UniProt Q9SRV5 1-765).
T2 construct: METHIONINE SYNTHASE 2 (AtMS2), Arabidopsis thaliana, At3g03780; cloned into the pMBP-c vector; source: E. coli BL21, purified (amylose resin)
T2 sequence (looked up): T1 sequence (looked up)
Nature of the assay: native gel or EMSA; super shift of a Texas red-labeled WUS or WOX5 promoter probe; 20 uL binding buffer (10 mM Hepes-KOH pH 7.8, 20 mM KCl, 10 mM MgCl2, 1 mM DTT, 0.1% BSA, 5% glycerol, 0.5% Triton-X100, 20 ng/uL salmon sperm DNA), 22 °C, 30 min; 6% polyacrylamide gel. Particulars: both partners purified. A general note: A gel shift assay detects complexes by their altered migration in electrophoresis.

B1: MBP:WOX5 (natural protein, Arabidopsis thaliana, UniProt Q8H1D2 1-182, looked up)
chain: MSFSVKGRSLRGNNNGGTGTKCGRWNPTVEQLKILTDLFRAGLRTPTTDQIQKISTELSFYGKIESKNVFYWFQNHKARERQKRRKISIDFDHHHHQPSTRDVFEISEEDCQEEEKVIETLQLFPVNSFEDSNSKVDKMRARGNNQYREYIRETTTTSFSPYSSCGAEMEHPPPLDLRLSFL
notes: WUSCHEL-RELATED HOMEOBOX 5 (WOX5), Arabidopsis thaliana, At3g11260; cloned into the pMBP-c vector; also called MBP-tagged WOX5; source: E. coli BL21, purified (amylose resin)
For the molecule B1, the binding result in assay [1] and in assay [2] was “binds” throughout.

B2: MBP (maltose-binding protein):WUS fusion protein (natural protein, Arabidopsis thaliana, UniProt Q9SB92 1-292, looked up)
chain: MEPPQHQHHHHQADQESGNNNNNKSGSGGYTCRQTSTRWTPTTEQIKILKELYYNNAIRSPTADQIQKITARLRQFGKIEGKNVFYWFQNHKARERQKKRFNGTNMTTPSSSPNSVMMAANDHYHPLLHHHHGVPMQRPANSVNVKLNQDHHLYHHNKPYPSFNNGNLNHASSGTECGVVNASNGYMSSHVYGSMEQDCSMNYNNVGGGWANMDHHYSSAPYNFFDRAKPLFGLEGHQEEEECGGDAYLEHRRTLPLFPMHGEDHINGGSGAIWKYGQSEVRPCASLELRLN
notes: WUSCHEL (WUS), Arabidopsis thaliana, At2g17950; cloned into the pMBP-c vector; also called MBP:WUS; MBP-tagged WUS; source: E. coli BL21, purified (amylose resin)
Consider B2, for which the binding result in assay [1] and in assay [2] was “binds” each time.

B3: MBP:WOX4 (natural protein, Arabidopsis thaliana, UniProt Q6X7J9 1-251, looked up)
chain: MKVHEFSNGFSSSWDQHDSTSSLSLSCKRLRPLAPKLSGSPPSPPSSSSGVTSATFDLKNFIRPDQTGPTKFEHKRDPPHQLETHPGGTRWNPTQEQIGILEMLYKGGMRTPNAQQIEHITLQLGKYGKIEGKNVFYWFQNHKARERQKQKRNNLISLSCQSSFTTTGVFNPSVTMKTRTSSSLDIMREPMVEKEELVEENEYKRTCRSWGFENLEIENRRNKNSSTMATTFNKIIDNVTLELFPLHPEGR
notes: WUSCHEL-RELATED HOMEOBOX 4 (WOX4), Arabidopsis thaliana, At1g46480; cloned into the pMBP-c vector; also called MBP-tagged WOX4; source: E. coli BL21, purified (amylose resin)
Regarding B3, the binding result in assay [1] is reported as “binds”.

(Values after paper PMC11359516, “Methionine Synthase 2 Represses Stem Cell Maintenance of Arabidopsis thaliana in Response to Salt Stress” (Plants, 2024).)
